Experimental findings from article PMC10794148 are described below.

As a reminder, the stoichiometry N is the number of molecules, sites or subunits per partner or assembly.

Test [1] has as its target 6×His-Sumo tagged mouse cGAS catalytic domain (UniProt Q8C6L5). As to the kind of experiment: TR-FRET competition assay. The note with it: unlabelled competitor at the highest titrated concentration, est. ~5,000 nM; signal is residual cGAS-biotin-NCP TR-FRET (lower = more competition); parent: est. 0.16; read off a plot. (In general: Time-resolved FRET reads energy transfer from a long-lived donor to a nearby acceptor.)

In test [2] the target is 147 bp nucleosome reconstituted with H2B(K125C)-biotin (human) (UniProt P04908). As to the kind of experiment: AlphaScreen or HTRF; TR-FRET competition: 15 nM 6×His-Sumo-mcGAS, 2 nM biotin NCP, 4 nM Eu-W1024 streptavidin, 10 nM ULight-anti-6×His; 0–2,000 nM untagged MRN or 0–5,000 nM unlabelled nucleosome; 10 mM Tris-HCl pH 7.5, 50 mM NaCl, 5% glycerol, 0.01% NP-40, 0.01% CHAPS, 5 mM DTT, 100 µg/ml BSA; 1 h at room temperature. (Bead proximity is the source of the signal in Alpha formats.)

Test [3] has as its target human nucleosome core particle, wild type, unlabelled (human) (UniProt P04908). In words: native gel or EMSA; 50 or 100 nM 147-bp hNCP with 200 or 50 nM mcGAS-CR and 0–1.2 µM MRN; 20 mM HEPES pH 7.5, 50 mM NaCl, 5% sucrose, 1 mM DTT; on ice; gel scanned for mcGAS-CR fluorescence, then ethidium bromide.

Where “and” joins values, the source holds several entries; their conditions need not be identical. Equal entries are not always repeated.

As to “human nucleosome core particle, wild type, unlabelled (from UniProt P04908;P62807;Q71DI3;P62805) H2A:E61A; H2A:E64S; H2A:N68A; H2A:D72S; H2A:N89A; H2A:D90A; H2A:E91S”, in test [1], the response (normalized fluorescence) came to 0.63. “untagged MRN complex (mixture of 2 unlabelled MR:1 NBS1–Flag) (from UniProt P49959 1-708; Q92878 1-1312; O60934 1-754)”: in test [2], the percent reduction of the cGAS–NCP TR-FRET signal at plateau turned out to be 50%. Consider “carboxyrhodamine-labelled mouse cGAS catalytic domain (from UniProt Q8C6L5 141-507) (domain or fragment)”, for which the stoichiometry N in test [3] is 1 cGAS per NCP and 2 cGAS per NCP.
